Experimental findings from paper PMC3742808 are described below.

Read-outs that look alike come from different tables or passages of the source.

Experiment [1] has as its target recombinant human APC/C (without CDH1) (human) (UniProt Q9H1A4). Description: enzyme inhibition.
The target is the same in experiment [2]. The experiment can be described thus: enzyme inhibition. This is another data set of the same source.

“EMI1^T (synthetic peptide corresponding to the EMI1 C-terminal tail)”: the values for the Ki in experiment [1] and in experiment [2] were 48 µM and 13 µM, respectively.
